In PMC3585134:

Tests used:
[1] = target: AIP56^1–285 (N-terminal domain of AIP56, apoptosis-inducing protein of 56 kDa) (Photobacterium damselae piscicida); test: reducing and non-reducing SDS-PAGE; purified AIP56^1–285 and AIP56^286–497, each alone, run with and without DTT (Figure S5A); dimers held by a disulphide formed on oxidation
[2] = target: AIP56^1–285 (N-terminal domain of AIP56, apoptosis-inducing protein of 56 kDa) (Photobacterium damselae piscicida); test: reducing and non-reducing SDS-PAGE; reconstituted AIP56: AIP56^1–285 and AIP56^286–497 mixed in equimolar amounts in 8 M urea, 1 mM DTT, refolded by extensive dialysis against sbPBS; run with and without DTT (Figure S6A)
[3] = target: AIP56^286–497 (C-terminal domain of AIP56, apoptosis-inducing protein of 56 kDa) (Photobacterium damselae piscicida); test: reducing and non-reducing SDS-PAGE; purified AIP56^1–285 and AIP56^286–497, each alone, run with and without DTT (Figure S5A); dimers held by a disulphide formed on oxidation
[4] = target: AIP56^286–497 (C-terminal domain of AIP56, apoptosis-inducing protein of 56 kDa) (Photobacterium damselae piscicida); test: reducing and non-reducing SDS-PAGE; reconstituted AIP56: AIP56^1–285 and AIP56^286–497 mixed in equimolar amounts in 8 M urea, 1 mM DTT, refolded by extensive dialysis against sbPBS; run with and without DTT (Figure S6A)

Substance | stoichiometry N [1] | stoichiometry N [2] | stoichiometry N [3] | stoichiometry N [4]
AIP56^1–285 (N-terminal domain of AIP56, apoptosis-inducing protein of 56 kDa) (domain or fragment) | 2 | 2 | – | –
AIP56^286–497 (C-terminal domain of AIP56, apoptosis-inducing protein of 56 kDa) (domain or fragment) | – | – | 2 | 2
